According to patent publication US11802878B2, “Protein sequencing method and reagents” (The Governing Council of the University of Toronto, priority 2009, dated 2023):

How the values were obtained:
[1] = system: immobilized biotinylated peptide, N-terminal amino acid H (X-SDGMFTAGSLIGK(biotin)); assay: Phage ELISA, binding to immobilized peptide, N-terminal H
Experimental: (§1) Given the discovery that the specificity pocket library was functionally robust, selections against synthetic peptide ligands were carried out using this library. The specificity pocket library was selected against 20 biotinylated peptides, each with a different N-terminal residue atop a common leader sequence (X-SDGMFTAGSLIGK(biotin)) (SEQ ID NO: 4). The peptides were immobilized individually to the bottom wells of a microtiter plate. […] Consequently, ClpS mutant variants that prefer other residues in addition to the ligand ‘bait’ would bind those competing peptides in solution and simply be washed away. Only selective variants that bound to the immobilized target(s) were amplified during each subsequent round of selection.
(§2) To evaluate the specificity and selectivity of individual clones, both wild-type ClpS and the selected variants' binding to each of the biotinylated peptides independently were tested. The same approach was also used to monitor the progress of the selections and to prioritize particular pools of phage for further investigation.
(§3) Promising single clones were picked from the selection pools and their specificity was evaluated using the same panel of biotinylated peptides and various amounts of phage supernatant. […] Accordingly, Variant 1 represents a selective N-terminal amino acid capture probe for tryptophan useful for the sequencing methods described herein. Variant 1 also represents a useful scaffold for performing further generation and selection of variants with desirable properties for use as additional N-terminal amino acid capture probes.
(§4) The selection and ELISA protocols are very similar. Briefly, each well of a 96-well Maxisorp plate was coated overnight at 4° C. with 100 μl of 10 μg/ml neutravidin in PBS, or 1:500 dilution of anti-FLAG antibody. […]
(§5) For the ELISA readouts, 100 μl of pH adjusted phage supernatant or polyethylene glycol (PEG) precipitated concentrated phage was added to appropriate wells and allowed to bind for 1 hour at 4° C. […] The reaction was stopped by addition of 90 μl of 1M H3PO4 and the absorbance at A450 nm was read.

[2] = system: immobilized biotinylated peptide, N-terminal amino acid N (X-SDGMFTAGSLIGK(biotin)); assay: Phage ELISA, binding to immobilized peptide, N-terminal N
Experimental: as §1, §2, §3, §4, §5

[3] = biological target: Leu-peptide; settings: reported value, wildtype ClpS:Leu-peptide interaction; read-out: dissociation constant (Kd); cited from earlier work
[4] = system: immobilized biotinylated peptide, N-terminal amino acid R (X-SDGMFTAGSLIGK(biotin)); assay: Phage ELISA, binding to immobilized peptide, N-terminal R
Experimental: as §1, §2, §3, §4, §5

[5] = system: Leu-peptides; assay: Phage binding to immobilized peptides or control peptides, ELISA (FIG. 6B); settings: negative controls BSA, SA, NA
From the text: Selected peptide ligands during were synthesized with C-terminal biotin-lysine residues. The biotinylated peptides were immobilized on neutravidin-coated wells of a microtiter plate by passive adsorption, alongside additional control proteins.
The ClpS domains were N-terminally FLAG-tagged as shown in FIG. 6A so that display of the recombinant phage coat protein would be detectable (using commercial anti-FLAG antibody), even if the domains were not able to bind ligand. […] The expressed proteins also contained an ST2 secretion signal that is cleaved off and a C-terminal phage coat protein p3 (that is, fused to the C-terminus/residue 106 of E. coli ClpS) as shown in FIG. 6C.
as §4, with “antibody. Plates were washed three times with PBS+0.50% TWEEN-20 (PT) and blocked for 1 hour at room temperature with 200 ul of PBS+0.5% BSA (PB). Plates were washed again three times with PT.” for “antibody.”
as §5

[6] = system: immobilized biotinylated peptide, N-terminal amino acid I (X-SDGMFTAGSLIGK(biotin)); assay: Phage ELISA, binding to immobilized peptide, N-terminal I
Experimental: as §1, §2, §3, §4, §5

[7] = system: immobilized biotinylated peptide, N-terminal amino acid K (X-SDGMFTAGSLIGK(biotin)); assay: Phage ELISA, binding to immobilized peptide, N-terminal K
Experimental: as §1, §2, §3, §4, §5

B1: ClpS WT: truncated wildtype E. coli ClpS polypeptide, 84 amino acids, SEQ ID NO: 1, displayed on phage (protein, listed as Escherichia coli)
chain: KPPSMYKVILVNDDYTPMEFVIDVLQKFFSYDVERATQLMLAVHYQGKAICGVFTAEVAETKVAMVNKYARENEHPLLCTLEKA
modifications: phage display
[1]; N-terminal H, phage 10X, sub Fab
  phage ELISA binding signal: −0.03
[1]; N-terminal amino acid H, Table 1
  phage ELISA binding signal: −0.03
[2]; N-terminal N, phage 10X, sub Fab
  phage ELISA binding signal: −0.05
[2]; N-terminal amino acid N, Table 1
  phage ELISA binding signal: −0.05
[3]
  Kd: 4.8 µM
[4]; N-terminal R, phage 10X, sub Fab
  phage ELISA binding signal: 0.13
[4]; N-terminal amino acid R, Table 1
  phage ELISA binding signal: 0.13
[5]; listed as ClpS from E. coli
  binding of phage-displayed ClpS to immobilized peptides: binds two of the Leu-peptides specifically, without cross reactivity to any of the negative controls
[5]; listed as ClpS from Escherichia coli
  binding of phage-displayed ClpS to immobilized peptides: able to bind its cognate ligand (immobilized Leucine)
[6]; N-terminal I, phage 10X, sub Fab
  phage ELISA binding signal: −0.16
[6]; N-terminal amino acid I, Table 1
  phage ELISA binding signal: −0.016
[7]; N-terminal K, phage 10X, sub Fab
  phage ELISA binding signal: 0.05
[7]; N-terminal amino acid K, Table 1
  phage ELISA binding signal: 0.05
